These results are taken from patent US11248246B2, “Beta-glucosidase for producing glucose and laminarioligosaccharide from sea weed” (Korea University Research and Business Foundation, priority 2018, dated 2022).

Bounds are passed on as bounds.

Series [1] can be described thus: Hydrolysis of laminarin to glucose (HPLC). The series is classed as biochemical. The settings on record: 3 U of Bgl1B, 0.2% (w/v) of laminarin, 40° C., 24 hours. As to the method: (§1) Characteristics of the enzymatic reaction of the Bgl1B protein using, as a substrate, laminarin, which is a polysaccharide, were analyzed using high performance liquid chromatography (HPLC) and thin layer chromatography (TLC). HPLC analysis was performed using Agilent 1100 HPLC equipped with a gel permeation and ligand exchange column (KS-802; Shodex) and a refractive index detector, and analysis conditions were a flow rate of 0.5 mL/min, a column temperature of 80° C., and sterile water as a mobile phase. For TLC analysis, 1 μl of a reaction product was loaded onto silica gel 60 plates (Merck), and then developed using a mixed solvent of n-butanol:acetic acid:water (volume ratio of 3:2:2), and treated with 10% (v/v) of sulfuric acid for visualization.

A short description of series [2]: Enzymatic reaction rate (Lineweaver-Burk), laminaribiose. The series is classed as biochemical. As to the method: To confirm the enzymatic reaction rate of the Bgl1B protein for various substrates, the Bgl1B protein was allowed to react with each substrate at various concentrations of 0.1-0.4% (w/v) at pH 6 and 40° C. Vmax, Km, and kcat, which are parameters related to an enzymatic reaction rate, were determined from the Lineweaver-Burk plot.

Series [3] can be described thus: Transglycosylase activity against laminarin (HPLC, TLC). The conditions noted are these: 0.03 U of Bgl1B, 0.2% (w/v) of laminarin, after 24 hours. The series is classed as biochemical. The procedure: as §1
Series [4] is described as follows: Transglycosylase activity against laminaribiose (HPLC, TLC, FIG. 8). The settings on record: 0.002 U of Bgl1B, 0.3% (w/v) of laminarin (so in the source). The series is classed as biochemical. The procedure:
as §1

Series [5] in a line: Substrate specificity of Bgl1B on disaccharides (TLC). The series is classed as biochemical. The settings on record: 0.2% (w/v) substrate, 20 mM sodium phosphate buffer (pH 6), 0.6 U of Bgl1B, 1 hour. The procedure: To confirm the substrate specificity of the Bgl1B protein, each of 0.2% (w/v) of a plurality of disaccharides in a 20 mM sodium phosphate buffer (pH 6) was allowed to react with 0.6 U of Bgl1B for 1 hour.

Series [6] is described as follows: Optimum temperature of Bgl1B (relative activity at 2° C. to 60° C.). The format is biochemical. The procedure:
FIG. 3 illustrates the relative activity of Bgl1B at a temperature ranging from 2° C. to 60° C. […] An enzymatic activity of approximately 83% was maintained at 20° C. […] In addition, the enzyme can be inactivated with only simple heat treatment.

A short description of series [7]: Thermal stability of Bgl1B. The series is classed as physicochemical. The text has this: FIG. 4 illustrates the stability with respect to temperature of the enzyme.
Series [8] can be described thus: Optimum pH of Bgl1B protein (relative activity at pH 4.0-9.0). The format is biochemical. The text has this: FIG. 2 illustrates the relative activity of Bgl1B at a pH ranging from 4.0 to 9.0. […] The activity was reduced to 30% or less at a pH of 4 and at a pH of 8 or higher.

B1: Bgl1B: β-glucosidase having the amino acid sequences of SEQ ID NO: 1, from Saccharophagus degradans 2-40^T, with exo-type glucanase and transglycosylase activities (protein)
chain: MNRLTLPPSSRLRSKEFTFGVATSSYQIEGGIDSRLPCNWDTFCEQPNTIIDNTNGAIACDHINRWQDDIELIANLGVDAYRFSIAWGRVINLDGSLNNEGVTFYKNILTKLREKNLKAYITLYHWDLPQHLEDAGGWLNRDTAYKFRDYVNLITQALDDDVFCYTTLNEPFCSAYLGYEIGVHAPGIKDLASGRKAAHHLLLAHGLAMQVLRKNCPNSLSGIVLNMSPCYAGSNAQADIDAAKRADDLLFQWYAQPLLTGCYPDAINSLPDNAKPPICEGDMALISQPLDYLGLNYYTRAVFFADGNGGFTEQVPEGVELTDMGWEVYPQGLTDLLIDLNQRYTLPPLLITENGAAMVDELVNGEVNDIARINYFQTHLQAVHNAIEQGVDVRGYFAWSLMDNFEWALGYSKRFGITYVDYQTQKRTLKASGHAFAEFVSSRS
modifications: Saccharophagus degradans 2-40T
On to B1, for which, in series [1], the “production yield of glucose from laminarin” value was determined as 75% and the “products of laminarin degradation (HPLC)” value is recorded as “only glucose is produced without the production of oligosaccharides”. In addition, the “substrate specificity in a collective view of the parameters” value in series [2] (Table 2 substrates compared) is recorded as “highest substrate specificity for laminaribiose”. Further, in series [2] (laminaribiose, compared to the commercialized enzyme Novozyme 188), the “lower Km compared to Novozyme 188” value was 2.5 fold. Further, the “products at very low enzyme concentration (transglycosylase activity)” value in series [3] was “oligosaccharides with low degrees of polymerization such as DP2, DP3, and DP4 were produced”. The “product of transglycosylase activity (FIGS. 8A and 8B)” value in series [4] is listed as “production of DP3 was confirmed”. In addition, in series [5], the hydrolysis of agarotriose result is “unable to hydrolyze agarotriose”, the “hydrolysis of disaccharides with an α-linkage” value is on record as “unable to hydrolyze any disaccharide with an α-linkage” and the “hydrolysis of disaccharides with β-linkages” value is reported as “able to hydrolyze all disaccharides with β-linkages”. Besides, the “enzymatic activity at 50° C. or higher” value in series [6] (50° C. or higher) was “sharply reduced”. In addition, the “enzymatic activity at 2-10° C.” value in series [6] (pH 6, 2-10° C.) is recorded as at least 58%. Moreover, the “enzymatic activity at pH 6 and 10° C. to 40° C.” value in series [6] (pH 6, 10° C. to 40° C.) is at least 80%. Further, in series [6] (pH 6, 20° C.), the “enzymatic activity maintained at 20° C.” value was “approximately 83%”. Moreover, the “temperature of highest enzymatic activity” value in series [6] (pH 6, range 2° C. to 60° C.) was determined as 40 °C. For the same molecule, the “enzymatic activity maintained after heat” value in series [7] (after reaction at 40° C. for 1 hour) turned out to be 80%. Further, the “enzymatic activity after heat” value in series [7] (after reaction at 50° C. or higher for 1 hour) is reported as “almost no activity”. In addition, the “pH of highest activity” value in series [8] (0.1% (w/v) cellobiose, 40° C., 15 minutes, pH 4.0-9.0) is recorded as 6. Moreover, the “enzymatic activity at about pH 5 to about pH 7.5” value in series [8] (about pH 5 to about pH 7.5) is on record as at least 80%. Moreover, in series [8] (pH 4, 0.1% (w/v) cellobiose, 40° C., 15 minutes), the “relative activity at a pH of 4” value is reported as at most 30%. The “relative activity at a pH of 8 or higher” value in series [8] (pH 8 or higher, 0.1% (w/v) cellobiose, 40° C., 15 minutes) is reported as at most 30%.
